Values quoted from earlier work as cited in paper PMC6829319.

Molecular target: CdiA toxin (Escherichia coli) (UniProt Q0T963)
Sequence (Q0T963 3016-3242): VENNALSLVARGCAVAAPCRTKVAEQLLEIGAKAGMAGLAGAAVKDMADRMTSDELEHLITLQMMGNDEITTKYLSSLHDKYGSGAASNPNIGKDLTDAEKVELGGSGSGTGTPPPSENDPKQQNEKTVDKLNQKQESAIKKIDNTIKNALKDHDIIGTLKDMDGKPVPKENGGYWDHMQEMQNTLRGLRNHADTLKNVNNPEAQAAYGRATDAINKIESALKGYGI

CysK, sequence (P0ABK5 2-323): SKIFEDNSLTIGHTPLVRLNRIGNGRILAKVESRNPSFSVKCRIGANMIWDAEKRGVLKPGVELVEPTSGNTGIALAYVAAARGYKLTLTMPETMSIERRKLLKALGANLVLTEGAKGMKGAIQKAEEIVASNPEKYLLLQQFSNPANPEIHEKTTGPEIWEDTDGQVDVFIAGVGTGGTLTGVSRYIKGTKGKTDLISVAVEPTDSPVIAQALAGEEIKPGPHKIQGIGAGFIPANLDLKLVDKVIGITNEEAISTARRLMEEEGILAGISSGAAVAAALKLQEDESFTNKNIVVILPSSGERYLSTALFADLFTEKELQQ

Question: Which Kd does the source give for CysK (from UniProt P0ABK5) here?
Answer: The Kd was 5 nM.
